Here are results for one molecule from article doi:10.1101/2023.02.22.529570 (bioRxiv, 2023).

This experiment addresses T1, His-NEON-EBP50 PDZ1PDZ2 (human, UniProt O14745-1 1-298).
T1 sequence: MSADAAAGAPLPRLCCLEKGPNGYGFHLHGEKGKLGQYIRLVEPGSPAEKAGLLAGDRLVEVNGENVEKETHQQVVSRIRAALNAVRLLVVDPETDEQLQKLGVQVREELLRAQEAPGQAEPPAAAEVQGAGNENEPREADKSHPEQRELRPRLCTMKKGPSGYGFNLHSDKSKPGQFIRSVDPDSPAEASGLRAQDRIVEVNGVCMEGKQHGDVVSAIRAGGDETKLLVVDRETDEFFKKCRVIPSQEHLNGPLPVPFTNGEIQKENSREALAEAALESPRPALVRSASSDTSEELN
Briefly: pull-down.

B1: GST-CDHR5 CD (domain or fragment)
chain: RLKCCCGKAPEPQPQGFDNQAFLPDHKANWAPVPSPTHDPKPAEAPMPAEPAPPGPASPGGAPEPPAAARAGGSPTAVRSILTKERRPEGGYKAVWFGEDIGTEADVVVLNAPTLDVDGASDSGSGDEGEGAGRGGGPYDAPGGDDSYI
On to B1, for which the binding result is “binds”.
